Experimental data from ChEMBL document CHEMBL2073821, “Immunohistochemical and functional characterization of pH-dependent intestinal absorption of weak organic acids by the monocarboxylic acid transporter MCT1” (J Pharm Pharmacol, 1999).

Tests used:
[1] = substrate: O=C(O)c1ccccc1; test: (§1) TP_TRANSPORTER: uptake in MCT1-expressing MDA-MB231 cells; format: functional, cell-based; details: MDA-MB-231
[2] = substrate: C[C@H](O)C(=O)O; test: as §1; format: functional, cell-based; details: MDA-MB-231

B1: Monocarboxylate transporter 1 (Rattus norvegicus), P53987 (protein)
chain: MPPAIGGPVGYTPPDGGWGWAVVVGAFISIGFSYAFPKSITVFFKEIEIIFSATTSEVSWISSIMLAVMYAGGPISSILVNKYGSRPVMIAGGCLSGCGLIAASFCNTVQELYFCIGVIGGLGLAFNLNPALTMIGKYFYKKRPLANGLAMAGSPVFLSTLAPLNQAFFGIFGWRGSFLILGGLLLNCCVAGSLMRPIGPQQGKVEKLKSKESLQEAGKSDANTDLIGGSPKGEKLSVFQTVNKFLDLSLFTHRGFLLYLSGNVVMFFGLFTPLVFLSNYGKSKHFSSEKSAFLLSILAFVDMVARPSMGLAANTRWIRPRVQYFFAASVVANGVCHLLAPLSTTYVGFCIYAGVFGFAFGWLSSVLFETLMDLVGPQRFSSAVGLVTIVECCPVLLGPPLLGRLNDMYGDYKYTYWACGVILIIAGLYLFIGMGINYRLVAKEQKAEEKKRDGKEDETSTDVDEKPKKTMKETQSPAPLQNSSGDPAEEESPV
[1]
  Km: 3.05 mM
[2]
  Km: 2.28 mM
